Among the targets are DLG1_2, Q12959; DLG4_2, P78352; FRMPD3, Q5JV73; GRASP, Q7Z6J2; GRIP2_7, Q9C0E4; LDB3, O75112; MAGI2_2, Q86UL8; PARD3_3, Q8TEW0; PDLIM1, O00151; SCRIB_1, Q14160.
Experiment in all cases: holdup assay
What all share (set-up): key: below the threshold = too weak to quantify, mostly under pKd 3.1 to 4
What all share (conditions): plain residues with an end cap or a label only (N-terminal biotin on a linker: ado-ado)

Another test has as its target T1, APBA1_1, Q02410.
T1 sequence (Q02410 651-752, limits assumed, looked up): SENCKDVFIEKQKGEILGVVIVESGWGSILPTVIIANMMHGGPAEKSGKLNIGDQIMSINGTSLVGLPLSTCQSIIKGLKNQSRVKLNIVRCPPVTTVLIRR

For another test, the target named is T2, CARD11, Q9BXL7.
T2 sequence (Q9BXL7 662-765, limits assumed, looked up): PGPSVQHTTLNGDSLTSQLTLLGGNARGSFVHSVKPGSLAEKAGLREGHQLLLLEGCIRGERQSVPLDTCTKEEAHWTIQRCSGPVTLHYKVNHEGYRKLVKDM

A further test deals with T3, DFNB31_1, Q9P202.
T3 sequence (Q9P202 135-233, limits assumed, looked up): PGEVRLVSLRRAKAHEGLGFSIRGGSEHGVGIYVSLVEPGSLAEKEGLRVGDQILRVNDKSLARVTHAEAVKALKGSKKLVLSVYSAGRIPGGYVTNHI

The next test has as its target T4, DFNB31_2, Q9P202.
T4 sequence (Q9P202 274-371, limits assumed, looked up): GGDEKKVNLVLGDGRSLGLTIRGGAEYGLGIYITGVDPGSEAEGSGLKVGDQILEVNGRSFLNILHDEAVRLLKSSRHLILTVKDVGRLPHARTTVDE

Another test addresses T5, DFNB31_3, Q9P202.
T5 sequence (Q9P202 811-907, limits assumed, looked up): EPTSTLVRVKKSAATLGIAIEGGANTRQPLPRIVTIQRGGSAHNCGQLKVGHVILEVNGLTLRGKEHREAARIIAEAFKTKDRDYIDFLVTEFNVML

For another test, the target named is T6, DVL3, Q92997.
T6 sequence (Q92997 244-331, limits assumed, looked up): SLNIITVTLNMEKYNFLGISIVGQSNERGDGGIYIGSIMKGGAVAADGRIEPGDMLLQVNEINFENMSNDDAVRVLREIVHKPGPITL

The target of another test is T7, GRIP1_4, Q9Y3R0.
T7 sequence (Q9Y3R0 467-571, limits assumed, looked up): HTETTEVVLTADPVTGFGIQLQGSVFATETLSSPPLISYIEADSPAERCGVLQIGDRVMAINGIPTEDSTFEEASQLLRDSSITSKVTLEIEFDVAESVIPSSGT

Another test concerns the target T8, HTRA3, P83110.
T8 sequence (P83110 354-453, limits assumed, looked up): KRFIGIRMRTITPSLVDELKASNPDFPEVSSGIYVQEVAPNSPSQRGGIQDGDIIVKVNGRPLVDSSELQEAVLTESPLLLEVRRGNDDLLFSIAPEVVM

The target in a further test is T9, LIN7A, O14910.
T9 sequence (O14910 103-200, limits assumed, looked up): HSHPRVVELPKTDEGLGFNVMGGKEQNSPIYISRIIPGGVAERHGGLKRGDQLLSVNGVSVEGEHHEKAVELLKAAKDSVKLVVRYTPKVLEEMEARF

For another test, the target named is T10, LIN7B, Q9HAP6.
T10 sequence (Q9HAP6 88-185, limits assumed, looked up): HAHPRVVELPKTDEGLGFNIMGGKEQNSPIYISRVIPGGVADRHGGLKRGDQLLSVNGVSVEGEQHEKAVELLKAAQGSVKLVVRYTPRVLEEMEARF

In a further test the target is T11, PDZD7_3, Q9H5P4.
T11 sequence (Q9H5P4 857-944, limits assumed, looked up): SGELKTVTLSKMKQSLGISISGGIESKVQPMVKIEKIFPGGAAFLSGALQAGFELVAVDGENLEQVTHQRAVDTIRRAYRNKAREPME

For another test, the target named is T12, PTPN13_1, Q12923.
T12 sequence (Q12923 1088-1188, limits assumed, looked up): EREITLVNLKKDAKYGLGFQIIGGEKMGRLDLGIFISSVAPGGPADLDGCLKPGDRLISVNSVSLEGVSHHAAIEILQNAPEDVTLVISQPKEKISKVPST

Another test addresses T13, SNTA1, Q13424.
T13 sequence (Q13424 82-180, limits assumed, looked up): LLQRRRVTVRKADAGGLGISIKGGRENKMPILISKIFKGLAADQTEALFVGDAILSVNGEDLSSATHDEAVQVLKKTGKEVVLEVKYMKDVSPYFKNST

For a further test, the target named is T14, TIAM2, Q8IVF5.
T14 sequence (Q8IVF5 885-986, limits assumed, looked up): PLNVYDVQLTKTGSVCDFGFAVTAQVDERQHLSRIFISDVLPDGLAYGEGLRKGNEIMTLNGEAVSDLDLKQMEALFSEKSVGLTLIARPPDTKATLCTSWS

GRASP, Q7Z6J2, sequence (Q7Z6J2 96-193): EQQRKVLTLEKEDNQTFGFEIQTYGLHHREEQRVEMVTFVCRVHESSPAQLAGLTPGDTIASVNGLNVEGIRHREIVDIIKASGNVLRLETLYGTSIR
PARD3_3, Q8TEW0, sequence (Q8TEW0 582-685): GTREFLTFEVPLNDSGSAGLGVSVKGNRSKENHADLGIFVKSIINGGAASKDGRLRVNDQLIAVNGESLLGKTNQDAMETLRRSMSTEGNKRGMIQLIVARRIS
MAGI2_2, Q86UL8, sequence (Q86UL8 410-522): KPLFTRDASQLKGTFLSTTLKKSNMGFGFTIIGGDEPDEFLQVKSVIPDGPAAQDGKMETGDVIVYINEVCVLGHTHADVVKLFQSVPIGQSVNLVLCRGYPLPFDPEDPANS
DLG1_2, Q12959, sequence (Q12959 314-412): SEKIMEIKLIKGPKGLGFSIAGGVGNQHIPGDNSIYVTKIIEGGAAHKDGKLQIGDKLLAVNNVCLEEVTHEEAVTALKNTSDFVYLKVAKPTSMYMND
LDB3, O75112, sequence (O75112 1-94): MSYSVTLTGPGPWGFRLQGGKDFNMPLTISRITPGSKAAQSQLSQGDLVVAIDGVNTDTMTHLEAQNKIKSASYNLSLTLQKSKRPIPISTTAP
DLG4_2, P78352, sequence (P78352 155-259): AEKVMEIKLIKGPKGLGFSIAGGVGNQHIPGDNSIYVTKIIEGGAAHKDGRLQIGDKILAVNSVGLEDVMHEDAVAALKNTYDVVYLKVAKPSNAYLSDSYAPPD
GRIP2_7, Q9C0E4, sequence (Q9C0E4 934-1023): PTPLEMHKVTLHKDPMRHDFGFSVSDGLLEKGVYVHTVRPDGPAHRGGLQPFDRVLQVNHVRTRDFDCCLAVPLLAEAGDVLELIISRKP
PDLIM1, O00151, sequence (O00151 1-87): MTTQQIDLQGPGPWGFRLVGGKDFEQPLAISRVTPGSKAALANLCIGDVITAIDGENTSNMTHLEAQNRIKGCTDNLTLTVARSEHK
FRMPD3, Q5JV73, sequence (Q5JV73 12-100): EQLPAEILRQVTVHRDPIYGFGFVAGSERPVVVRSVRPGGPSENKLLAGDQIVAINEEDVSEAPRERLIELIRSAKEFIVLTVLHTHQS
SCRIB_1, Q14160, sequence (Q14160 718-814): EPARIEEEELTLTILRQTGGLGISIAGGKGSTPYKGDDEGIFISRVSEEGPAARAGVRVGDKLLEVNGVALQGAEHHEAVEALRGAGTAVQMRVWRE

With PDGEMMEVLI [AMOTL1, Q8IY63], the pKd entry with APBA1_1, Q02410 is “below the threshold”; in the test with CARD11, Q9BXL7, “below the threshold”; in the test with DFNB31_1, Q9P202, “below the threshold”; with DFNB31_2, Q9P202, “below the threshold”; with DFNB31_3, Q9P202, 3.65; with DLG1_2, Q12959, “below the threshold”. Further, the pKd entry with DLG4_2, P78352 is “below the threshold”; with DVL3, Q92997 it was “below the threshold”; in the test with FRMPD3, Q5JV73, “below the threshold”; with GRASP, Q7Z6J2 it was “below the threshold”; with GRIP1_4, Q9Y3R0 it was “below the threshold”; in the test with GRIP2_7, Q9C0E4, “below the threshold”. The pKd result was “below the threshold” in the test with HTRA3, P83110; “below the threshold” with LDB3, O75112; “below the threshold” with LIN7A, O14910; 3.72 with LIN7B, Q9HAP6; “below the threshold” with MAGI2_2, Q86UL8; 5.29 with PARD3_3, Q8TEW0. In addition, the pKd entry in the test with PDLIM1, O00151 was “below the threshold”; in the test with PDZD7_3, Q9H5P4, “below the threshold”; with PTPN13_1, Q12923 it was “below the threshold”; in the test with SCRIB_1, Q14160, “below the threshold”; in the test with SNTA1, Q13424, “below the threshold”; in the test with TIAM2, Q8IVF5 it was 3.86.

Consider VISERNSTTV [C3AR1, Q16581], for which the pKd result in the test with APBA1_1, Q02410 was “below the threshold”; with CARD11, Q9BXL7, “below the threshold”; in the test with DFNB31_1, Q9P202 it was “below the threshold”; in the test with DFNB31_2, Q9P202, “below the threshold”; in the test with DFNB31_3, Q9P202, “below the threshold”; with DLG1_2, Q12959 it was 4.72. Further, the negative logarithm of the Kd (pKd) with DLG4_2, P78352 is 4.65; with DVL3, Q92997, “below the threshold”; in the test with FRMPD3, Q5JV73 it was “below the threshold”; with GRASP, Q7Z6J2 it was 4.37; with GRIP1_4, Q9Y3R0 it was “below the threshold”; in the test with GRIP2_7, Q9C0E4 it was “below the threshold”. Also, the pKd entry with HTRA3, P83110 was “below the threshold”; with LDB3, O75112 it was “below the threshold”; in the test with LIN7A, O14910 it was “below the threshold”; in the test with LIN7B, Q9HAP6, “below the threshold”; in the test with MAGI2_2, Q86UL8 it was 4.51; with PARD3_3, Q8TEW0, “below the threshold”. Besides, the negative logarithm of the Kd (pKd) entry is “below the threshold” in the test with PDLIM1, O00151; 4.41 with PDZD7_3, Q9H5P4; “below the threshold” with PTPN13_1, Q12923; 3.72 with SCRIB_1, Q14160; 3.79 with SNTA1, Q13424; “below the threshold” in the test with TIAM2, Q8IVF5.

Take WRSKRTDTLL [RAMP3, O60896]: the pKd entry with APBA1_1, Q02410 was “below the threshold”; with CARD11, Q9BXL7 it was “below the threshold”; with DFNB31_1, Q9P202, 3.74; in the test with DFNB31_2, Q9P202 it was “below the threshold”; with DFNB31_3, Q9P202, “below the threshold”; in the test with DLG1_2, Q12959 it was 4.29. Besides, the pKd was 3.98 in the test with DLG4_2, P78352; “below the threshold” in the test with DVL3, Q92997; “below the threshold” with FRMPD3, Q5JV73; “below the threshold” with GRASP, Q7Z6J2; “below the threshold” with GRIP1_4, Q9Y3R0; “below the threshold” with GRIP2_7, Q9C0E4. In addition, the pKd result with HTRA3, P83110 was “below the threshold”; with LDB3, O75112, “below the threshold”; with LIN7A, O14910, “below the threshold”; with LIN7B, Q9HAP6 it was “below the threshold”; with MAGI2_2, Q86UL8 it was 4.23; with PARD3_3, Q8TEW0, 3.48. Besides, the negative-log Kd (pKd) result with PDLIM1, O00151 is “below the threshold”; with PDZD7_3, Q9H5P4, 3.99; with PTPN13_1, Q12923, “below the threshold”; in the test with SCRIB_1, Q14160, 3.92; in the test with SNTA1, Q13424 it was 3.59; in the test with TIAM2, Q8IVF5, “below the threshold”.

On to FEEEAEEEVA [TUBB4B, P68371], for which the pKd result with APBA1_1, Q02410 is “below the threshold”; with CARD11, Q9BXL7, “below the threshold”; with DFNB31_1, Q9P202, “below the threshold”; in the test with DFNB31_2, Q9P202, “below the threshold”; in the test with DFNB31_3, Q9P202, 3.89; with DLG1_2, Q12959 it was “below the threshold”. In addition, the negative-log Kd (pKd) entry in the test with DLG4_2, P78352 is reported as “below the threshold”; with DVL3, Q92997, “below the threshold”; with FRMPD3, Q5JV73, “below the threshold”; in the test with GRASP, Q7Z6J2, “below the threshold”; with GRIP1_4, Q9Y3R0, “below the threshold”; in the test with GRIP2_7, Q9C0E4, “below the threshold”. Further, the negative logarithm of the Kd (pKd) entry was “below the threshold” with HTRA3, P83110; “below the threshold” in the test with LDB3, O75112; “below the threshold” with LIN7A, O14910; 3.58 with LIN7B, Q9HAP6; “below the threshold” with MAGI2_2, Q86UL8; “below the threshold” with PARD3_3, Q8TEW0. The negative logarithm of the Kd (pKd) result in the test with PDLIM1, O00151 was “below the threshold”; with PDZD7_3, Q9H5P4 it was “below the threshold”; with PTPN13_1, Q12923, “below the threshold”; with SCRIB_1, Q14160, “below the threshold”; with SNTA1, Q13424, “below the threshold”; in the test with TIAM2, Q8IVF5, 3.74.

For orientation: pKd means the negative decadic logarithm of the Kd, by convention in mol/L.

(Values after article PMC9482650, “Quantitative fragmentomics allow affinity mapping of interactomes” (Nature Communications, 2022).)
